US20210253725A1 (BIONTECH, published 2021)
Where a chain is given by its changes, count along the chain named. In names and notes the source's numbering stands.

T1: CD27 expressed on the cell surface of HT1080_CD27 cells (human, UniProt P26842 20-260)
T1 construct: whole, on cells; species not restated for the HT1080 transfectant
T1 sequence (looked up): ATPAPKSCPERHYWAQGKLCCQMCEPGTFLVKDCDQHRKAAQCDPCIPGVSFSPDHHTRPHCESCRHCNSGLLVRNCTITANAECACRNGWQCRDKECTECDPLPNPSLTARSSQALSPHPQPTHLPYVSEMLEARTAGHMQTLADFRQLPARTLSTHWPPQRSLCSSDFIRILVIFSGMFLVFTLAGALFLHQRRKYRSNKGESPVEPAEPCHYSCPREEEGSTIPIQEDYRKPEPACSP

T2: CD27 protein (His-tagged, Sino Biological Inc. 10039-H08B1) (human, UniProt P26842 20-192)
T2 construct: bought protein coated on ELISA plates; also called TNFRSF7; not shown: His tag
T2 sequence (looked up): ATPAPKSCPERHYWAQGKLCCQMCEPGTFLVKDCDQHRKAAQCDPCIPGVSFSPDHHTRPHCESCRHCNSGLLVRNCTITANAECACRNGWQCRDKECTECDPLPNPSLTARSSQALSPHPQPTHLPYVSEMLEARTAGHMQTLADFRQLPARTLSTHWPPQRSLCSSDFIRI

B1: P018.S.04.A.E05 (antibody, V domains shown)
VH: QSLEESGGDLVKPGASLTLTCTASGFSFSSDYYMCWVRQAPGKGLEWIACISAGSSGSIYYASWAKGRFTISKTSSTTVTLQMTSLTAADTATYFCAREASDSIYYPIFNLWGPGTLVTVSS
VL: AAVLTQTPSPVSAAVGGTVSISCQSSKSVYNNNALSWFQQKPGQPPKLLIYGASTLPSRVPSRFKGSGSGTQFTLTISDVQSDDAATYYCIGGYSSSSDTNAFGGGTEVVVK
notes: V regions on human Ig constant parts; also called AB27_76
B2: P018.S.05.A.B06 (antibody, V domains shown)
VH: QSVEESGGRLVTPGTPLTLTCTVSGFSLNTYVMSWVRQAPGKGLEWIGYIDYGGAPYYASWAKGRFTISKTSTTVELKITSPTIEDTATYFCARGGYGGYVLVTVLWGPGTLVTVSS
VL: DVVMTQTPASVSEPVGGTVTIKCQASQNIYSSLAWYQQKPGQPPKLLIYQASTLASEVPSRFKGSGSGTEFTLTINDLESADAATYYCQTYYGGSTYGNGFGGGTEVVVE
notes: V regions on human Ig constant parts; also called AB27_84
B3: P018.S.07.A.A02 (antibody, V domains shown)
VH: B2 VH with N29S, T30S
VL: B2 VL with T53R, N76S
notes: V regions on human Ig constant parts; also called AB27_113
B4: P018.S.09.A.G06 (antibody, V domains shown)
VH: QSVEESGGRLVTPGTPLTLTCTASGFSLSNYHMSWVRQAPGKGLEWIGIIYAGSDSTWYASWAKGRFTISKTSTTVDLKITSPTTEDTATYFCARQPGGGASDTQLDLWGQGTLVTVSS
VL: AAVLTQTASPVSAAVGGTVTINCQSSQNIFDNNQLSWFQHKSGQSPKLLIYRASTLASGVPSRFKGSGSGTQFTLTISDVQSDDAATYYCLGGYSSSSDTVFGGGTEVVVK
notes: V regions on human Ig constant parts; also called AB27_159
B5: P018.S.10.A.B02 (antibody, V domains shown)
VH: QSVEESGGRLVTPGGSLTLSCTVNGFSLSSHGVSWVRQAPGKGLEWIGIIYVISGHAYYASWAKGRFTISKTSTTVDLKIASPTTEDTATYFCARGNYGSDSGPNFTRLDLWGQGTLVTVSS
VL: AQVLTQTPSPVSATVGGTLTINCQASQSLYNNDYLAWYQQKPGQPPKLLIYLASTLASGVSSRFKGSGSGTQFTLTISGVQSDDAATYYCQGEFSCSSGDCLAFGGGTEVVVK
notes: V regions on human Ig constant parts; also called AB27_167
B6: P018.S.10.A.E02 (antibody, V domains shown)
VH: QEQLEESGGDLVKPEGSLTLTCTASGFSFSSSFYMCWVRQAPGKGLEWVACIYAEDSDYTYYASWAKGRFTISKTSSTTVTLQMTSLTAADTATYFCAREILYPTNTDSFDLWGPGTLVTVSS
VL: AFELTQTPSSVEAAVGGTVTIKCQASESFSSRLAWYQQKPGQPPKLLIYRASTLASGVPSRFKGSGSGTDFTLTISDLESADAAAYYCQAYVGISSGGYAFGGGTEVVVG
notes: V regions on human Ig constant parts; also called AB27_176
B7: P018.S.08.A.F01 (antibody, V domains shown)
VH: QSVEESGGRLVTPGTPLTLTCTVSGSDISGYALGWVRQAPGKGLEYIGVIAADGNAYYASWAKGRFTISRTSTTVDLKMTSLTTEDTATYFCARGYSSGWGTYGYFDLWGQGTLVTVSS
VL: DIVMTQTPASVSAAVGGTVTIKCQASEDIYSYLAWYQQKPGQPPKLLIYRASTLESGVPSRFKGSGSGTQFTLTISDLESADAATYYCQSYYYSHSTTYSNVFGGGTEVVVK
notes: V regions on human Ig constant parts; also called AB27_140
B8: P018.S.03.A.G05 (antibody, V domains shown)
VH: QSLEESGGDLVKPEGSLTLTCTASGFSFSSGGWICWVRQAPGRGLEWIACIYVGSSGTTHYASWAKGRFTISKTSSTTVTLQMTSLTAADTATYFCARGAVYGGGSYDNFHLWGPGTLVTVSS
VL: AYDMTQTPASVSEPVGGTVTIKCQASQSIGSYLSWYQQKPGQRPKLLIYAASTLASGVQSRFKGSGSGTDYTLTISGVQSDDAATYYCQQGYNISNLDNTFGGGTEVVVK
notes: V regions on human Ig constant parts; also called AB27_58
B9: P018.S.05.A.E03 (antibody, V domains shown)
VH: QSLEESGGRLVTPGGSLTLTCTVSGIDLSSYAMGWVRQAPGKGLEWIGYITYGGSTYYANWVNGRFTISKTSTMVDLKMTSLTAADTATYFCARLRAPYYYRIYFNLWGPGTLVTVSS
VL: ALVMTQTPSSVEAAVGGTVTIKCQASQNIISALAWYQQKPGQPPKLLIYDASNLESGVPSRFKGSGSGTDFTLTISDLESADAATYYCQGAYDTNINDFGGGTEVVVK
notes: V regions on human Ig constant parts; also called AB27_89
B10: P018.S.03.A.D04 (antibody, V domains shown)
VH: QEHLEESGGGLVQPGGTLTLTCKASGIDFSSSYYMCWVRQAPGKGLERLACTYNRDGSTYYASWAKGRFTISKTSSTTVTLQMTSLTVADTATYFCARDDGYPGSGYVLNLWGPGTLVTVSS
VL: DVVMTQTPASVEAAVGGTVTIRCQASQSVSNYFSWYQQKPGQPPKLLIYGASNLESGVPSRFKGSGSGTEFTLTISGVQSDDAATYYCQGGYYSSNTDNNSFGGGTEVVVK
notes: V regions on human Ig constant parts; also called AB27_49
B11: P018.S.05.A.A06 (antibody, V domains shown)
VH: QSLEESGGRLVTPGTPLTLTCTVSGIDLNNNAMSWVRQAPGEGLEWIGIISTAGTTTYASWTKGRFTISKTSTTVDLKITSPTTEDTATYFCARAAYFSYGYINLWGQGTLVTVSS
VL: DIVMTQTPASVEAAVGGTVTIKCQASQNIGNALAWYQQKSGQPPKLLIYSASTLASGVPSRFKGSGSGTEFTLTISDLESADATTYFCQSYVYSDGNVFGGGTEVVVK
notes: V regions on human Ig constant parts; also called AB27_82
B12: P018.S.03.A.D05 (antibody, V domains shown)
VH: QSLEESGGRLVTPGTPLTLTCTASGFSLSSYYITWVRQAPGEGLEWIGTISTAGNTYFASWANGRFTISRTSTTVDLKMTSPTTEDTATYFCARDGAGDSNYYRNLWGQGTLVTVSS
VL: DIVLTQTPASVEAAVGGTVTIKCQASQSIDRFLAWYQQKPGQPPKLLIYDASDLASGVPSRFSGSGYGTEFTLTISGVQSEDAATYYCQQGYYISDIHNVFGGGTEVVVK
notes: V regions on human Ig constant parts; also called AB27_50
B13: P018.S.05.A.D03 (antibody, V domains shown)
VH: QEQLEESGGDLVQPEGSLTLTCTVSGFSFNSNYWICWVRQAPGKGLEWIACIMTGDGSTYYATWAKGRFTISKTSSTTVTLQMTSLTAADTATYFCARGYDGIHGGDNYGHVFNLWGPGTLVTVSS
VL: AFELTQTPFSVSAVVGGTVTINCQASENIYSLLAWYQQKPGQPPKLLIYRASTLASGVPSRFKGSGSGTQFTLIISDLESGDAATYYCQSYYINSSNSFGGGTEVVVK
notes: V regions on human Ig constant parts; also called AB27_86
B14: P018.S.07.A.D05 (antibody, V domains shown)
VH: QSLEESGGDLVKPEGSLTLTCTASGFSFSSSYWICWVRQAPGKGLEWIGCMITGRGNTYYATWAKGRFTISKTSSTTVTLQMTSLTAADTATYFCARGPGGADPINLWGPGTLVTVSS
VL: DVVMTQTPASVSEPVGGTVTIKCQASQNIYNNLAWYQQKPGQPPKLLIYLASTLASGVPSRFEGSGSGTEFTLTISGVQSDDAATYYCQSTYDGSSYVPNAFGGGTEVVVK
notes: V regions on human Ig constant parts; also called AB27_124
B15: P018.S.01.A.A06 (antibody, V domains shown)
VH: QSVEESGGRLVTPGTPLTLTCTVSGIDLSTYAMSWVRQAPGKGLEWIGIIYGSGYTYYASWAKGRATISKTSSTTVDLKITSPTTEDTATYFCASGYGISSGNFLHFNLWGQGTLVTVSS
VL: AYDMTQTPASVEVAVGGTVTIKCQASESIYFNLAWYQQKPGQRPKLLIYRASTLASGVSSRFKGSGSGTQFTLTISGVESADAATYYCQQGYDSSHIDNAFGGGTEVVVT
notes: V regions on human Ig constant parts; also called AB27_3

How the values were obtained:
[1] = molecular target: T1, CD27 expressed on the cell surface of …; test: HT1080_CD27 cells, imaging
[2] = molecular target: T1, CD27 expressed on the cell surface of …; test: cell-based or functional assay
[3] = molecular target: T2, CD27 protein (His-tagged, Sino …); test: ELISA, coated His-tagged CD27
Also: test concentration or dose not given here.

Binder	Cellular binding assay [RFU] [1] [RFU]	Functional assay Cross-linked by F(ab′)2 fragment IL-8 [2] [abs. corr.]	Functional assay IL-8 [2] [abs. corr.]	ELISA [abs. corr.] [3] [abs. corr.]
B1	319	1.77	0.747	3.11
B2	309	1.7	0.22	3.1
B3	314	1.85	0.059	3.08
B4	338	1.34	0.467	3.12
B5	249	1.91	0.47	3.11
B6	395	1.39	0.23	3.02
B7	395	1.11	0.211	3.1
B8	269	1.27	0.031	2.98
B9	322	1.92	0.208	3.07
B10	270	1.23	0.513	3.1
B11	374	1.58	0.324	3.11
B12	324	1.5	0.5	3.12
B13	321	1.28	0.1	3.1
B14	329	1.64	-0.032	3.08
B15	287	1.92	0.566	3.09
